Source: patent publication US20110144038A1 (FRESENIUS MEDICAL CARE DEUTSCHLAND G M B H, published 2011)
Positions of bridges follow the written chain, without caps; N, C: chain ends. No end group written: not given here.

T1: human CD154 expressed on the cell surface of J558L cells (murine myeloma cell line transfected with human … (human, UniProt P29965 1-261))
T1 construct: whole, on cells; also called CD40L; CD40 ligand
T1 sequence (looked up): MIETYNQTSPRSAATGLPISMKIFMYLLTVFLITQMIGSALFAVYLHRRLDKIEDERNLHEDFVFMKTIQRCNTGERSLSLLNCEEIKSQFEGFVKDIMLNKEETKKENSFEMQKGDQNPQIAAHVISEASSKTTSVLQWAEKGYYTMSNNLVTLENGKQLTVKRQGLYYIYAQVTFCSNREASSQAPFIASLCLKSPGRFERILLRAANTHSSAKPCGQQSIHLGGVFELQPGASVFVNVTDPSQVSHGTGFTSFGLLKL


Assays:
[1] = biological target: T1, human CD154 expressed on the cell …; test: flow cytometry, -His6 peptide on J558L cells, PE anti-His6 antibody
Description: FIG. 2 represents the binding of the seven peptides obtained from the human CD154-binding clones and tagged with a 6 histidines tail (-His₆) to the J558L CD154⁺ cells. […] The cells were incubated with each of the -His₆-tagged peptides and then with a phycoerythrin-conjugated secondary antibody specific for the-His₆ tail. […] For each experimental condition, 10,000 events were analyzed and the values are the mean and standard deviation of 3 different experiments. All of the peptides are capable of specifically binding to the CD154 on the J558L CD154⁺ cells and are not capable of binding to the control J558 cells.
The peptides were synthesized and conjugated with biotin (-bio) or with a 6-histidine tail (-his₆) so as to enable in vitro and in vivo localization. […] Furthermore, a competition assay between the peptides and an anti-human CD154 fluorescein-conjugated antibody (Serotec) specifically recognizing the active site of CD154 was carried out. The J558L cells were incubated with the his₆-peptides for 30 minutes at room temperature and then with anti-human CD154 fluorescein-conjugated antibody for another 30 minutes at room temperature.

[2] = biological target: T1, human CD154 expressed on the cell …; test: binding to CD154+ J558L cells
[3] = biological target: T1, human CD154 expressed on the cell …; test: binding to J558L cells
Description: The murine myeloma cells transfected with human CD154, J558L, were incubated with each of the seven anti-CD154 peptides tagged with a 6 histidines tail (-His₆), and then with the anti-CD154 fluorescein-conjugated antibody. The ability of the peptides to compete with the anti-CD154 antibody for the binding to the CD154 molecule expressed on the surface of the J558L cells was evaluated by flow cytometry, as the reduction in the fluorescence intensity compared to the positive control represented by cells incubated with the anti-human CD154 fluorescein-conjugated antibody alone. […] The amino acid sequence of the control peptide differs from that of peptide 4.10 in that an arginine residue is replaced with an alanine residue at amino acid position 5.
The peptides were synthesized and conjugated with biotin (-bio) or with a 6-histidine tail (-his₆) so as to enable in vitro and in vivo localization. […] Furthermore, a competition assay between the peptides and an anti-human CD154 fluorescein-conjugated antibody (Serotec) specifically recognizing the active site of CD154 was carried out.

binding result [1]	Binder	further results
binds	CLSAVHNMCHHHHHH (disulfide 1-9, Synthetic peptide; also called -his6 peptide) [peptide 4.11 tagged with a 6 histidines tail (-His6)]	–
binds	CTPGKPHSCHHHHHH (disulfide 1-9, Synthetic peptide; also called -his6 peptide) [peptide 4.7 = 4.12 tagged with a 6 histidines tail (-His6)]	–
–	CIPTRHMAC [modified peptide 4.101]	binding result [2]: no binding
–	CIPTRHMVC [modified peptide 4.103]	binding result [2]: no binding
binds	CGTHSSRICHHHHHH (disulfide 1-9, Synthetic peptide; also called -his6 peptide) [peptide 4.4 tagged with a 6 histidines tail (-His6)]	–
–	CLPTAHMAC (also called peptide 4.10 with alanine at position 5) [control peptide 4.10-ala]	binding result [3]: no binding
binds	CLGTQNKECHHHHHH (disulfide 1-9, Synthetic peptide; also called -his6 peptide) [peptide 4.6 tagged with a 6 histidines tail (-His6)]	–
binds	CPSGHTKACHHHHHH (disulfide 1-9, Synthetic peptide; also called -his6 peptide) [peptide 4.2 = 4.3 tagged with a 6 histidines tail (-His6)]	–
binds	CKAASANICHHHHHH (disulfide 1-9, Synthetic peptide; also called -his6 peptide) [peptide 4.8 tagged with a 6 histidines tail (-His6)]	–
–	CLPARHMAC (also called mutated peptide (position 4)) [peptide 4.10 with the residue at position 4 replaced with alanine]	binding result [3]: no binding
–	CLPSRHMAC [modified peptide 4.102]	binding result [2]: no binding
–	CLPTRAMAC (also called mutated peptide (position 6)) [peptide 4.10 with the residue at position 6 replaced with alanine]	binding result [3]: no binding
–	CLPTRWMAC [modified peptide 4.104]	binding result [2]: no binding
binds	CLPTRHMACHHHHHH (disulfide 1-9, Synthetic peptide; also called -his6 peptide) [peptide 4.10 tagged with a 6 histidines tail (-His6)]	–
